Measured values taken from US20230174608A1 (published 2023).

Columns and labels:
[1] = biological target: GLP-1 receptor (GLP-1R), stably expressed on HEK293 cells; test: cell-based or functional assay
[2] = biological target: Glucagon receptor (GCGR), stably expressed on HEK293 cells; test: cell-based or functional assay

B1: dgc003 (peptide)
peptide: HXQGTFTSDYSKYLDERAAKEFIAWLEAGG
HELM: PEPTIDE1{H.[Aib].Q.G.T.F.T.S.D.Y.S.K.Y.L.D.E.R.A.A.K.E.F.I.A.W.L.E.A.G.G.[am]}|PEPTIDE2{[CCCCCCCCCCCCCCCC(=O)[*:2]].[gGlu]}$PEPTIDE1,PEPTIDE2,20:R3-2:R2$$$V2.0; N-terminus assumed
SMILES: CCCCCCCCCCCCCCCC(=O)N[C@@H](CCC(=O)NCCCC[C@H](NC(=O)[C@H](C)NC(=O)[C@H](C)NC(=O)[C@H](CCCNC(=N)N)NC(=O)[C@H](CCC(=O)O)NC(=O)[C@H](CC(=O)O)NC(=O)[C@H](CC(C)C)NC(=O)[C@H](Cc1ccc(O)cc1)NC(=O)[C@H](CCCCN)NC(=O)[C@H](CO)NC(=O)[C@H](Cc1ccc(O)cc1)NC(=O)[C@H](CC(=O)O)NC(=O)[C@H](CO)NC(=O)[C@@H](NC(=O)[C@H](Cc1ccccc1)NC(=O)[C@@H](NC(=O)CNC(=O)[C@H](CCC(N)=O)NC(=O)C(C)(C)NC(=O)[C@@H](N)Cc1c[nH]cn1)[C@@H](C)O)[C@@H](C)O)C(=O)N[C@@H](CCC(=O)O)C(=O)N[C@@H](Cc1ccccc1)C(=O)N[C@H](C(=O)N[C@@H](C)C(=O)N[C@@H](Cc1c[nH]c2ccccc12)C(=O)N[C@@H](CC(C)C)C(=O)N[C@@H](CCC(=O)O)C(=O)N[C@@H](C)C(=O)NCC(=O)NCC(N)=O)[C@@H](C)CC)C(=O)O
[1]
  GLP-1R (nM EC50), receptor-mediated cAMP production in HEK293 cells: 0.291 nM
[2]
  GCGR (nM EC50), receptor-mediated cAMP production in HEK293 cells: 1.04 nM
